Results from patent US20190284293A1, “COMBINATION THERAPY WITH ANTI-CD73 ANTIBODIES” (BRISTOL-MYERS SQUIBB COMPANY, priority 2016, published 2019).
Numbering of substitutions follows the chain as printed.

B1: mAb13-IgG2.3 (protein)
constant: ASTKGPSVFPLAPCSRSTSESTAALGCLVKDYFPEPVTVSWNSGALTSGVHTFPAVLQSSGLYSLSSVVTVPSSNFGTQTYTCNVDHKPSNTKVDKTVERKSCVECPPCPAPPVAGPSVFLFPPKPKDTLMISRTPEVTCVVVDVSHEDPEVQFNWYVDGVEVHNAKTKPREEQFNSTFRVVSVLTVVHQDWLNGKEYKCKVSNKGLPAPIEKTISKTKGQPREPQVYTLPPSREEMTKNQVSLTCLVKGFYPSDIAVEWESNGQPENNYKTTPPMLDSDGSFFLYSKLTVDKSRWQQGNVFSCSVMHEALHNHYTQKSLSLSPGK
modifications: left off: another chain or arm of the molecule
B2: mAb8-IgG2.5 (protein)
constant: B1 constant with C14S, S102C
modifications: left off: another chain or arm of the molecule
B3: mAb6-IgG2.5 (protein)
constant: B1 constant with C14S, S102C
modifications: left off: another chain or arm of the molecule
B4: mAb11-IgG2.5 (protein)
constant: B1 constant with C14S, S102C
modifications: left off: another chain or arm of the molecule
B5: mAb7-IgG2.5 (protein)
constant: B1 constant with C14S, S102C
modifications: left off: another chain or arm of the molecule
B6: mAb13-IgG2.5 (protein)
constant: B1 constant with C14S, S102C
modifications: left off: another chain or arm of the molecule
B7: mAb5-IgG2.5 (protein)
constant: B1 constant with C14S, S102C
modifications: left off: another chain or arm of the molecule
B8: mAb4-IgG2.5 (protein)
constant: B1 constant with C14S, S102C
modifications: left off: another chain or arm of the molecule
B9: mAb7-IgG2.3G1-AY-V27 (protein)
constant: ASTKGPSVFPLAPCSRSTSESTAALGCLVKDYFPEPVTVSWNSGALTSGVHTFPAVLQSSGLYSLSSVVTVPSSNFGTQTYTCNVDHKPSNTKVDKTVERKSCVECPPCPAPELLGGPSVFLFPPKPKDTLMISRTPEVTCVVVDVEHEDPEVKFNWYVDGVEVHNAKTKPREEQYNSTYRVVSVLTVLHQDWLNGKEYKCKVSNKALPAPIEKTISKAKGQPREPQVYTLPPSREEMTKNQVSLTCLVKGFYPSDIAVEWESNGQPENNYKTTPPVLDSDGSFFLYSKLTVDKSRWQQGNVFSCSVMHEALHNHYTQKSLSLSPGK
modifications: left off: another chain or arm of the molecule
B10: mAb7-IgG2.5G1-AY-V27 (protein)
constant: B9 constant with C14S, S102C
modifications: left off: another chain or arm of the molecule
B11: mAb8-IgG2.5G1-AY-V27 (protein)
constant: B9 constant with C14S, S102C
modifications: left off: another chain or arm of the molecule

Experiments:
Assay in all cases: SPR, antibody binding to anti-his Fab captured FcgR-his (% Rmax)
Conditions in all cases: 1 μM antibody
CD16B-NA2 (FcgRIIIb-NA2) = CD16B-NA2 (FcgRIIIb-NA2) (Homo sapiens, UniProt O75015)
Method: (§1) The binding of antibodies to Fc gamma receptors (FcγRs or FcgRs) was studied using biosensor technologies including Biacore surface plasmon resonance (SPR) and Fortebio Biolayer Interferometry (BLI). SPR studies were performed on a Biacore T100 instrument (GE Healthcare) at 25° C. The Fab fragment from a murine anti-6×His antibody was immobilized on a CM5 sensor chip using EDC/NHS to a density of −3000 RU. Various his-tagged FcgRs (7 ug/ml) were captured via the C-terminal his-tag using a contact time of 30 s at 10 ul/min, and the binding of 1.0 μM antibody was evaluated in a running buffer of 10 mM NaPO4, 130 mM NaCl, 0.05% p20 (PBS-T) pH 7.1. FcgRs used for these experiments included CD64 (FcgRI), CD32a-H131 (FcgRIIa-H131), CD32a-R131 (FcgRIIa-R131), CD32b (FcgRIIb), CD16a-V158 (FcgRIIIa-V158), CD16b-NA1 (FcgRIIIb-NA1), and CD16B-NA2 (FcgRIIIb-NA2). BLI experiments were performed on a Fortebio Octet RED instrument (Pall, Fortebio) at 25° C. in 10 mM NaPO4, 130 mM NaCl, 0.05% p20 (PBS-T) pH 7.1. Antibodies were captured out of undiluted expression supernatants on protein A coated sensors, followed by the binding of 1 μM hCD32a-H131, hCD32a-R131, hCD32b, hCD16a-V158, or 0.1 μM hCD64 analytes.

[1] = biological target: CD16a-V158 (FcgRIIIa-V158) (Homo sapiens, UniProt P08637, F176V)
Method: as §1

[2] = biological target: T1, CD32a-H131 (FcgRIIa-H131) (Homo sapiens, UniProt P12318)
T1 sequence (P12318 34-217 limits assumed): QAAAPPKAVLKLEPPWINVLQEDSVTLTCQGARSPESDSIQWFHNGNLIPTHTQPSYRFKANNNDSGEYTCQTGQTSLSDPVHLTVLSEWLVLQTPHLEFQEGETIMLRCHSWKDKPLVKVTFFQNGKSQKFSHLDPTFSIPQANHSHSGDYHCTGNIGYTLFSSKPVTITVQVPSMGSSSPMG
Method: as §1

[3] = biological target: T2, CD32a-R131 (FcgRIIa-R131) (Homo sapiens, UniProt P12318, H167R)
T2 sequence (P12318 34-217 H167R limits assumed): T1 sequence (P12318 34-217 limits assumed) with H134R
Method: as §1

CD32b (FcgRIIb) = biological target: T3, CD32b (FcgRIIb) (Homo sapiens, UniProt P31994)
T3 sequence (P31994 43-310): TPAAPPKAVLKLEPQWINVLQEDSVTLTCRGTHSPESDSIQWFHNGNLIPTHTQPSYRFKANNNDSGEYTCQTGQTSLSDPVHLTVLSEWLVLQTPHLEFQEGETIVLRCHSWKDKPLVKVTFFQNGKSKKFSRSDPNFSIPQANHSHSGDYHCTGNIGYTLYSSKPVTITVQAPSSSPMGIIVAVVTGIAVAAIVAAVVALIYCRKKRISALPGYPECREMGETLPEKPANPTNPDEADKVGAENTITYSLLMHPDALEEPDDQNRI
Method: as §1

CD64 (FcgRI) = CD64 (FcgRI) (Homo sapiens, UniProt P12314)
Method: as §1

CD64 (FcgRI), sequence (P12314 16-374): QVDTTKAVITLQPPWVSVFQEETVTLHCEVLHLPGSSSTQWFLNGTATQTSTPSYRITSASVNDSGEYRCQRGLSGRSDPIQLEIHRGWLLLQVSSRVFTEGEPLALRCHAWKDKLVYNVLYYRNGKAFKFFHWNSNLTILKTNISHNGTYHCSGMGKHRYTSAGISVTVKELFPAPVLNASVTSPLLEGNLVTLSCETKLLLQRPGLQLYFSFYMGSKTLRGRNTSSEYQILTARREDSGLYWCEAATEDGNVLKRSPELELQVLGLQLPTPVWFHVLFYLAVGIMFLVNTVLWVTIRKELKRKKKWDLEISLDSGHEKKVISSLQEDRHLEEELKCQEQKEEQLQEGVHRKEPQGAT
CD16a-V158 (FcgRIIIa-V158), sequence (P08637 17-208 F176V limits assumed): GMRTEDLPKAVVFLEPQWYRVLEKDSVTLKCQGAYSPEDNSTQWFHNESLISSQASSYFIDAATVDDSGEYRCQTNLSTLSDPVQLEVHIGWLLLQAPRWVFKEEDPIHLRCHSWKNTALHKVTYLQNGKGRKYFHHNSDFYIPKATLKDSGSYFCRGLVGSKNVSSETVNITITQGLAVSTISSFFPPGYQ
CD16B-NA2 (FcgRIIIb-NA2), sequence (O75015 17-200 limits assumed): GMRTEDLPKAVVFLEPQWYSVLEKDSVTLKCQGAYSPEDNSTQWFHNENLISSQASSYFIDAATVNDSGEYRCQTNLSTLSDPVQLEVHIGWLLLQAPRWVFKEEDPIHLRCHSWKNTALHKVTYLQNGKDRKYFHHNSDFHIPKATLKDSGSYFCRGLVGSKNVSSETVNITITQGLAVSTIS

Molecule | % Rmax hCD16B-NA2 (CD16B-NA2 (FcgRIIIb-NA2)) [%] | % Rmax hCD16a-V158 [1] [%] | % Rmax hCD32a-H131 [2] [%] | % Rmax hCD32a-R131 [3] [%] | % Rmax hCD32b (CD32b (FcgRIIb)) [%] | % Rmax hCD64 (CD64 (FcgRI)) [%]
B1 | 0 | 1 | 40 | 7 | 1 | 2
B2 | 0 | 2 | 59 | 14 | 3 | 3
B3 | 0 | 2 | 75 | 17 | 4 | 3
B4 | −1 | 0 | 40 | 13 | 3 | 0
B5 | 0 | 2 | 72 | 19 | 2 | 4
B6 | −2 | 0 | 39 | 4 | −2 | −2
B7 | 1 | 4 | 89 | 26 | 5 | 6
B8 | 0 | 1 | 46 | 8 | 1 | 2
B9 | 7 | 26 | 68 | 92 | 76 | 84
B10 | 9 | 32 | 74 | 89 | 84 | 81
B11 | 10 | 33 | 76 | 79 | 77 | 77
